Test results as given in publication PMC11655644, “Cardiocutaneous syndrome is caused by aggregation of iASPP mutants” (Cell Death Discovery, 2024).
Values belong to the molecule of their own block, whether it stands above or below them.

How the values were obtained:
[1] = target: iASPP CTD N813A Y814A double mutant (human) (UniProt Q8WUF5); assay: ITC; VP-ITC, 12 °C, 25 steps of 10 µl; 450 µM iASPP CT peptides titrated to 30 µM purified ASPP CTDs; 25 mM HEPES pH 7.5, 150 mM NaCl, 500 µM TCEP
[2] = target: iASPP CTD WT (C-terminal domain, AA625-828) (human) (UniProt Q8WUF5); assay: as above
[3] = target: T1, iASPP CTD WT (C-terminal domain, AA625-828) (human, UniProt Q8WUF5 625-828); assay: thermal shift assay; 20 µM CTD with SYPRO Orange and 20 or 40 µM PP1α (AA311-330) peptide in assay buffer; 4 to 99 °C at 0.1 °C/s; conditions: both partners purified
T1 construct: iASPP (encoded by PPP1R13L), C-terminal domain with four ankyrin repeats and an SH3 domain, AA625-828 (CTD starting from L625); also called iASPP WT CTD; source: E. coli BL21(DE3) Rosetta, purified (IMAC, TEV cleavage, reverse Ni, HiTrap Q, Superdex 75 SEC); not shown: His10, N-terminal, cleaved
T1 sequence (looked up): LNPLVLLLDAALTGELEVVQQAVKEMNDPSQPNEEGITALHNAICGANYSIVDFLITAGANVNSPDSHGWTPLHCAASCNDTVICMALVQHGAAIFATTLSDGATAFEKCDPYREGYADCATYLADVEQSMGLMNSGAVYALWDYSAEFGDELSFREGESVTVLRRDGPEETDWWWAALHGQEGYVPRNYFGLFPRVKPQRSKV

- Kd [1]: 5000 nM
- Kd [2]: 135 nM
Molecule: iASPP A620P peptide spanning the sequence around the mutation

- Kd [1]: 5000 nM
- Kd [2]: 743 nM
Molecule: iASPP WT peptide spanning the sequence around A620

B1: PP1α (AA311-330) peptide (peptide, UniProt P62136 311-330, looked up)
peptide: GLNPGGRPITPPRNSAKAKK
notes: PP1α (protein phosphatase 1 catalytic subunit alpha), peptide AA311-330; also called PP1α peptide
- increase of the melting temperature with peptide [3]: 10 °C
